# Patent US20180282403A1, “AGENTS FOR REDUCING THE ACTIVITY OF GDF15” (GENAGON THERAPEUTICS AB, priority 2015, published 2018)
# Target: T1, GDF15 (Homo sapiens, UniProt Q99988)
# T1 construct: purchased Abcam
# T1 sequence (Q99988 197-308 limits assumed): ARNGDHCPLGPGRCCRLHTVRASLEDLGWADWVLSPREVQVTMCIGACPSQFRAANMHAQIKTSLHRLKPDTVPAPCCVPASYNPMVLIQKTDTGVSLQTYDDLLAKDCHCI
# Test: Pepstar peptide array: GDF15 binding to 15-mers of extracellular loop2 (ECD3) of QRFPR
# Settings: amino acid walk and alanine scan of 15-mers; FIG. 12
# Excerpt: In order to determine the key amino acids and a minimal epitope present in the third extracellular domain of QRFPR (extracellular loop 2) we designed a Pepstar peptide array, purchased from JPT peptides. In short the array included complete coverage of the extracellular loop2 of QRFPR, divided into 15-mers. Peptides of this length (15-mers) were selected based on recommended length by the manufacturer, based on factors such as efficiency of synthesis, purity and yield by FMOC chemistry. The 15-mers were either varied according to amino acid walk, single or double alanine scan. Each set was analysed in triplicates. GDF15 was diluted into PBS-T (0.05% Tween-20) and incubated under mild agitation on an orbital shaker overnight at +4 C. Washes was done under agitation on a Sky line orbital shaker DOS-10L, ELMI.
# Primary antibodies against GDF15 were added to wells with prior GDF15 incubation and to adjacent control wells where GDF15 had been omitted (only PBS-T) and incubated for 1 hr RT under agitation on orbital shaker. After repeated washes fluorophore-conjugated secondary antibodies were added, and after final washes the array was analysed on a G2502 Microarray scanner, Agilent Technologies. Fluorescence values from technical controls and control wells (no GDF15) were subtracted and resulting values in triplicate was analysed in Excel and Prism.
sequence,measurement,value
FLYEKEHIC (listed as Homo sapiens) [SEQ ID NO:11],GDF15 binding to immobilised QRFPR ECD3 peptides,essential for GDF15 binding
